According to paper PMC3433420, “Comprehensive Binary Interaction Mapping of SH2 Domains via Fluorescence Polarization Reveals Novel Functional Diversification of ErbB Receptors” (PLoS ONE, 2012):
Where “and” joins values, the source holds several entries; their conditions need not be identical. Identical values can stand only once. Non-standard residues stand in square brackets, D forms with d. No end group written: not given here. pY = N[C@@H](Cc1ccc(OP(=O)(O)O)cc1)C(=O)O; Rhodamine = not defined here

Legend:
Experiment in all cases: peptide or protein array; SH2/PTB proteins spotted on aldehyde slides, rhodamine peptide titrated in buffer B (20 mM HEPES, 100 mM KCl, 0.1% Tween-20, 5 mM DTT, pH 7.8), 1 h at room temperature; replicate assays
Details in all cases: both partners purified
PTPN6 tandem SH2 domains = biological target: T1, PTPN6 tandem SH2 domains (human)
T1 construct: PTPN6, human; also called PTPN6-NC; source: bacterial expression, purified

SH2D2A SH2 domain = biological target: T2, SH2D2A SH2 domain (human, UniProt Q9NP31 95-186)
T2 construct: SH2D2A, human; source: bacterial expression, purified

VAV1 SH2 domain = biological target: T3, VAV1 SH2 domain (human, UniProt P15498 671-765)
T3 construct: VAV1, human; source: bacterial expression, purified
T3 sequence (looked up): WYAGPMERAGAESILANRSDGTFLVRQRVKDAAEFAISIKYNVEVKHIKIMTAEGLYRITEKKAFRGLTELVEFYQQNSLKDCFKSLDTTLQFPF

NCK1 SH2 domain = biological target: T4, NCK1 SH2 domain (human, UniProt P16333 282-376)
T4 construct: NCK1, human; source: bacterial expression, purified

[1] = biological target: T5, RASA1 C-terminal SH2 domain (human)
T5 construct: RASA1, human; source: bacterial expression, purified
T5 sequence (P20936 whole entry, looked up): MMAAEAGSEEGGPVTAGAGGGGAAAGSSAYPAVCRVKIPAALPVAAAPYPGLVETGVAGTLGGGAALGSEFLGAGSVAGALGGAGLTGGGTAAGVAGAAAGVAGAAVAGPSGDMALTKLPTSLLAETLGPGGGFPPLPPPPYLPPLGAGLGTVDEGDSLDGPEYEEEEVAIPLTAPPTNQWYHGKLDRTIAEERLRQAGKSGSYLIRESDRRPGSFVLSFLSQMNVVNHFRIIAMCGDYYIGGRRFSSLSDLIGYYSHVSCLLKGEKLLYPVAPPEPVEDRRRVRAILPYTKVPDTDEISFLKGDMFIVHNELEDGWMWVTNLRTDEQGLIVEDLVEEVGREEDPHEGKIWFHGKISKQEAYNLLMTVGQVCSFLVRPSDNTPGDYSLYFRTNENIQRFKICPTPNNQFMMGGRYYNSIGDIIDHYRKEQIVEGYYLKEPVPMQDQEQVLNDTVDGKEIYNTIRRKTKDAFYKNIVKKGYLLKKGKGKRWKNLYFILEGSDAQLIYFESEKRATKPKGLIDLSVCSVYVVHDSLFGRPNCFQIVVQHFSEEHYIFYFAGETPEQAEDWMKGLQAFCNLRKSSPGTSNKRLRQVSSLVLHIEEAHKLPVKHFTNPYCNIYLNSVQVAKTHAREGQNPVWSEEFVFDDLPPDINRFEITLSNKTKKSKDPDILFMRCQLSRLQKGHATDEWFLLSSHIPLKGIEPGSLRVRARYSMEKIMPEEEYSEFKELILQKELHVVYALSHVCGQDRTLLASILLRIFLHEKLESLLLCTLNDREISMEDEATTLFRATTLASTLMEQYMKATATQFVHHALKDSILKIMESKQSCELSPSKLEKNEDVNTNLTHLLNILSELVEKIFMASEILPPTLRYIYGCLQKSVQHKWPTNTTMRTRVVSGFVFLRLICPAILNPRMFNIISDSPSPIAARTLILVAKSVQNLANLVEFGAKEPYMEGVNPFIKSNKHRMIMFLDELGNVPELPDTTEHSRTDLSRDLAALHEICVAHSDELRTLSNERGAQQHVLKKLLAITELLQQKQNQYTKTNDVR

SHC1 domain construct = biological target: T6, SHC1 domain construct (human)
T6 chain: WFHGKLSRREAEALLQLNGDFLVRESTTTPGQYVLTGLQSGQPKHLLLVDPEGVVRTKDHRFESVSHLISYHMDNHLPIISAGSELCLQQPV

[2] = biological target: T7, PIK3R2 tandem SH2 domains (human, UniProt O00459 1-728)
T7 construct: PIK3R2, human; also called PIK3R2-NC; source: bacterial expression, purified

GRAP2 SH2 domain = biological target: T8, GRAP2 SH2 domain (human, UniProt O75791 58-149)
T8 construct: GRAP2, human; source: bacterial expression, purified
T8 sequence (looked up): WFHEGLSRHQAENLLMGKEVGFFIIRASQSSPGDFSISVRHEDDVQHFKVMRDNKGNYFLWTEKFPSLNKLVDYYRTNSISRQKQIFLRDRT

[3] = biological target: T9, PIK3R3 C-terminal SH2 domain (human)
T9 construct: PIK3R3, human; source: bacterial expression, purified

T7 sequence (O00459 whole entry, the tested form may be a part): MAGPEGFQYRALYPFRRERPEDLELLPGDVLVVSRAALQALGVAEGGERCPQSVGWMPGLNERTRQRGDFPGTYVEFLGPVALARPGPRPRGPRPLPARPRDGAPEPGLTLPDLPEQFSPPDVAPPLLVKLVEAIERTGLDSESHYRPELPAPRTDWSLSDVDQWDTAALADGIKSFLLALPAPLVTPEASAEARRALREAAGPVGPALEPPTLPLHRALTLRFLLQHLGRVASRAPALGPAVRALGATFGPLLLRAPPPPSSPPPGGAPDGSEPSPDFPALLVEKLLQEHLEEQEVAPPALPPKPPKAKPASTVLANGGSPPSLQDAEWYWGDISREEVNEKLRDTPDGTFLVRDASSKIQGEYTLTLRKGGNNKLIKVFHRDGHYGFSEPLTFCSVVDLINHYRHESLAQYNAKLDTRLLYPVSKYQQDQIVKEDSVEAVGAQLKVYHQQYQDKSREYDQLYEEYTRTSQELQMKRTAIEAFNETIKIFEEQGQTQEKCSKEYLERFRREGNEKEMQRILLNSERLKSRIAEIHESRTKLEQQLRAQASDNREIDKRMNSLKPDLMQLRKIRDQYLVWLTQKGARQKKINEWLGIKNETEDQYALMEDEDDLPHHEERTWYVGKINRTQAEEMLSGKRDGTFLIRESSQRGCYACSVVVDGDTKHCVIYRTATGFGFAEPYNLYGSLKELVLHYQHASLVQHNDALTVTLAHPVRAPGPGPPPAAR
T2 sequence (Q9NP31 95-186): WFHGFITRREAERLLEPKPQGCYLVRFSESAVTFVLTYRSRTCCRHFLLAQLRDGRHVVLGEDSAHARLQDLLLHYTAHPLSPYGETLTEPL

Question: For Rhodamine-ETDG[pY]VAPLTCSD (reading uncertain) [ErbB2 pY1127 phosphopeptide, rhodamine-labelled, for protein microarrays], which Kd (PTPN6 tandem SH2 domains) is on record?
Answer: 1620 nM

Question: And the Kd (SH2D2A SH2 domain)?
Answer: 2750 nM

Question: What about the Kd (VAV1 SH2 domain) of the same binder?
Answer: 186 nM and 91.6 nM

Question: What about the Kd (NCK1 SH2 domain) of the same binder?
Answer: 6850 nM

Question: And the Kd [1]?
Answer: 1210 nM

Question: What about the Kd (SHC1 domain construct) of the same binder?
Answer: 820 nM and 978 nM

Question: And the Kd [2]?
Answer: 10.6 nM and 4.66 nM

Question: What about the Kd (GRAP2 SH2 domain) of the same binder?
Answer: 19400 nM

Question: What about the Kd [3] of the same binder?
Answer: 2040 nM and 1210 nM
